Consider one molecule from paper PMC4764579 (2016).

For this experiment, the target named is TRPV1 (Rattus norvegicus, UniProt O35433). Briefly: electrophysiology, Hill fit.
TRPV1, sequence (O35433 whole entry): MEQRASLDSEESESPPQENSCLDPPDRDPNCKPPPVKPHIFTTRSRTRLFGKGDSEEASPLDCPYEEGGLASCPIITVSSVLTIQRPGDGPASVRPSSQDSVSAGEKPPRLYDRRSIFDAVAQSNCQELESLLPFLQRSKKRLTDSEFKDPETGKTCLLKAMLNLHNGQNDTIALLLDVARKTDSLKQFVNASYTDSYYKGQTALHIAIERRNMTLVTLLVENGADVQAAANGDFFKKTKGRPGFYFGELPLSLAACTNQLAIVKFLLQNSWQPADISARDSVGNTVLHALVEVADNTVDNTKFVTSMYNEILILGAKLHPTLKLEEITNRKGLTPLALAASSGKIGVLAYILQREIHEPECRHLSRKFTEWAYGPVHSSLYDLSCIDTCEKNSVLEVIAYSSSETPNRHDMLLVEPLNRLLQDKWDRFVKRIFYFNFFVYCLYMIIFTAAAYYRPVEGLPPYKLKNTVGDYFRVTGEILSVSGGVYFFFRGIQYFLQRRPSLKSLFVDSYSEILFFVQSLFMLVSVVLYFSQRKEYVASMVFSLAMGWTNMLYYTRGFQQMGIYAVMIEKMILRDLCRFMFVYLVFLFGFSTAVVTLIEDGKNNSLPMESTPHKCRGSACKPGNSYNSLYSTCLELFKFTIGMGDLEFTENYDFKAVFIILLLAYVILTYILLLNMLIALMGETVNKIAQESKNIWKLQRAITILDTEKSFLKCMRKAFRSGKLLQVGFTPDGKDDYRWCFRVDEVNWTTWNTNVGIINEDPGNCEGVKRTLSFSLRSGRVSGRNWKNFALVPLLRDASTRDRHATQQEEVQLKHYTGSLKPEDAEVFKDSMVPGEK

B1: double-knot toxin (DkTx) K2 knot (peptide)
chain: TNCAKEGEVCGWGSKCCHGLDCPLAFIPYC
With B1, binding was put at a Kd of 8.5 µM. This counts as single-digit micromolar.
